For one substance, % of cells in the quadrant Anti-hPD-L1 488 positive, HAC 594 negative (lower right) results are on record in patent publication US20170233451A1.

This experiment has as its target human PD-L1 on cells (IFN-gamma-induced SK-MEL-28 melanoma cells; CT26-Tg(hPD-L1)-delta(mPD-L1) cells and tumors) (human) (UniProt Q9NZQ7). Nature of the experiment: flow cytometry of a dissociated CT26 hPD-L1 positive tumor four hours after intraperitoneal injection of both labeled agents; same quadrant of the PD-L1 negative tumor: 3.97. For orientation: Flow cytometry measures light scatter and fluorescence of single cells or particles in a stream.

Sequence of human PD-L1 on cells (IFN-gamma-induced SK-MEL-28 melanoma cells; CT26-Tg(hPD-L1)-delta(mPD-L1) cells and tumors) (human) (Q9NZQ7 19-290 limits assumed, stated change not applied): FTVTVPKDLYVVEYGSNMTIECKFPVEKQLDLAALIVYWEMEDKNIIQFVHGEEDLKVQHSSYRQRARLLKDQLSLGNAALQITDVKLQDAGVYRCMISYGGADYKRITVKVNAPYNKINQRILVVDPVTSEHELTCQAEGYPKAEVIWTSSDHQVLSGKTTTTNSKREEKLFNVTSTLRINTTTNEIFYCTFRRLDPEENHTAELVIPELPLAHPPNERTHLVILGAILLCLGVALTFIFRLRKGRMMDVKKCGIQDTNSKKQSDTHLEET

With “AlexaFluor488-labeled anti-PD-L1 antibody (clone 29E.2A3, BioLegend)”, the % of cells in the quadrant Anti-hPD-L1 488 positive, HAC 594 negative (lower right) came out at 2.22%.
